Assay results from patent publication US20220031830A1.

Experiments:
[1] = target: RC1 Env trimer (BG505-derived SOSIP.664 soluble gp140) (HIV-1 BG505); assay: SPR (Biacore T200), SOSIP captured on 8ANC195 IgG, Fab injected, equilibrium fit 1:1
[2] = target: 11MUTB Env trimer (SOSIP.664) derived from wtBG505 (HIV-1 BG505); assay: as above

Substance: Fab of the common inferred germline (iGL) precursor of PGT121 and 10-1074
- Kd [1]: 50 µM
- Kd [2]: 50 µM
